This is an account of results in paper PMC11602996, “Discovery, characterization, and structure of a cofactor-independent histidine racemase from the oral pathogen Fusobacterium nucleatum” (The Journal of Biological Chemistry, 2024).

Substrate in series [1]: N[C@@H](Cc1c[nH]cn1)C(=O)O
Nature of the series: purified protein. It is filed as biochemical, Fusobacterium nucleatum. The note with it: 20 mM NaH2PO4, 100 mM NaCl, pH 7.5, 25 °C.

Substrate in series [2]: N[C@H](Cc1c[nH]cn1)C(=O)O
Nature of the series: purified protein. It is filed as biochemical, Fusobacterium nucleatum. As to conditions: 20 mM NaH2PO4, 100 mM NaCl, pH 7.5, 25 °C.

Usually Km stands for the concentration of substrate that gives half-maximal velocity. The term kcat denotes the maximal rate divided by the concentration of active sites. By kcat/Km is commonly meant the turnover number divided by the Michaelis constant.

B1: HisR (FN1732, predicted DapF) from F. nucleatum ATCC 25586 (Fusobacterium nucleatum subsp. nucleatum ATCC 25586) (protein)
chain: MDRKVQVLDFIKINPAGNITILIDNFDIYDKNIPKLSEEIMKETNLYAEQVGFIKDSHLQMMGGEFCGNASRAFASLLAFRDKDFSKQKNYNITCSGESKVLDVDVRNDGAKNKFLAKIKMPKFLSLEEINVDEYKLGLVRFSGINHFIFNIKENKETSFENIIDLVKKYLSNEEYSAFGIMFFDSDNLSMKPYVYVKEVGSGVYENSCASGTTALGYYLKKCKNLDRAKIVQPNGWLEYIIENDEMYIDGPVEIIAEGKIYIGK
notes: C-terminal hexahistidine tag, codon-optimized gene in pET-24b(+), expressed in E. coli BL21(DE3), Ni-NTA purified; homodimer
As to B1, in series [1], the Km worked out at 4 mM, the kcat worked out at 74 s⁻¹ and the kcat/Km came to 20000 M⁻¹ s⁻¹. Also, in series [2], the Km amounted to 24 mM, the kcat came to 250 s⁻¹ and the kcat/Km amounted to 10000 M⁻¹ s⁻¹.

B2: HisR from F. nucleatum ATCC 23726 (Fusobacterium nucleatum subsp. nucleatum ATCC 23726) (protein)
chain: MDGKVQVLDFIKINPAGNITILIDNFDIYDKNIPKLSEEIMKETNLYAEQVGFIKEKHLQMMGGEFCGNASRSFASLLAFRDKDFSEQKNYSITCSGESEVLDVDVRTDGAKNKFLAKIKMPKFISLEEISIDEYKLGLVRFSGISHFIFNIKENKETSFENIIDLVKKYLSNEDYSAFGIMFFDKDNLSMKPYVYVKELESGIYENSCASGTTALGYYLKKYKNLDRAKVVQPNGWLEYIIENDEMYIDGPVEIVAEGKVYI
Consider B2, for which, in series [1], the Km is 5 mM, the kcat is 42 s⁻¹ and the kcat/Km stood at 9000 M⁻¹ s⁻¹. In series [2], the Km worked out at 18 mM, the turnover number (kcat) came to 64 s⁻¹ and the kcat/Km is 4000 M⁻¹ s⁻¹.
